Measurements taken from the nanobody polyreactivity screen of Harvey et al. (2022).

Assay: yeast display, Sf9 membrane polyspecificity reagent, FACS + sequencing; frameworks hold sequencing errors
In short: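 Synthetic nanobody libraries on Saccharomyces cerevisiae BJ5465 were galactose-induced for 36–48 hours, stained 1 hour at 4 °C with 10% biotinylated, detergent-solubilized Sf9 membrane reagent and enriched on streptavidin microbeads. FACS then separated cells into low and high (top ~1%) gates by anti-HA (expression) and streptavidin (reagent binding) fluorescence. Genes were colony-PCR amplified, MiSeq 2 × 250 sequenced and CDR-length filtered. A clone's polyreactivity label is that of its gate of origin.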

Sequence	polyreactivity (PSR sort gate)
QVQLQESGGGLVQAGGSLRLSCAARASIFKVVDMGLYRQAPAKEREFVATIGEGGNTYYADSVKGRFTISRDNAKNTVYLQMNSLKPEDTAVYFYAVVLGTSYRYTYWGQGTQVTVSS	low polyreactivity
QVQLVESGGGLVQAGGSLRLSCAASGFTFEYYAMGWYRPAPGKERELVADITTSSAGTYYADSVKGRFTISRDNAKNTVYLQMNSLKPEDTAVYYCNRDDLNTGEDLDYWGQGTQVTVSS	low polyreactivity
QVQHVESGGRLVQAGGSLRLSCAASGSIFGRYVMGWYRQAPGKESELVAAISGSGGSTNYADSVKGRFTISRDNAKNTVYLQMNSLKPEDTAVYYCATLRWFWYTRSTRIGDYWGQGTQVTVSS	high polyreactivity
QVQLVESGGGLVQAGGSLRLSCAASGRIFQDYAMGWYRQAPGKERELVASIRWSSTSTYYADSVKGRFTISRDNAKNTVYLQMNSLKPEVSAVYYCAKRPFYLTYFRDDYWGQGTQVSVSS	low polyreactivity
QVQLVESGGGLVQAGGSLRLSCAASGFTFPRNAMGWYRQAPGKERELVAAISRGGGGTYYADSVKGRFTISRDNAKNTVYLQMNSLKPEDTAVYYCNARSVVREFNYWGQGTQVTVSS	high polyreactivity
QVQLVESGGGLVQAGGSLRLSCAASGSILDSYAMGWDRQAPGKERELVAASTRSGVRTYYADSVKGRFTISRDNAKNTVYLQMNSLKPEDTAVYYCAARVTRYRDLNYWGQGTQVTVSS	high polyreactivity
QVQLVESGGGLVQAGGSLRLSCAASGSTFYYYAMGWSRQAPGQERELVAAISWRGSSTYYADAVQGRFTISRDNAKNTVYLQLNSLKPEDTAVSYCAAGYPGRVSGYRYGTRATYYYWGQGTQVTVSS	high polyreactivity
QVQLEESGGGLVQAGGSLRLSCAASGFIFGPYAMGWYRQAPGKERELVAAMSSSGGSTSYEDSVKGRFTISRDNAKNTVYLQMNSLKPEDTAVYYCAARGRYRLYSNYYDYWGQGTQVNVSS	high polyreactivity
QVQLVESGGGLVQAGGSLRLSCAASGGIFPYYAMGWYRQAPGKERELVAGISQNDGRTYYADSVKGRFTISRDNAKNTVYLQMNSLKPEDTAVYYCATDYWYPRYGYWGQGTQVTVSS	low polyreactivity
QDQLVEAGGGLVQAGGSLRLSCAASGRIFYPDAMVWYRQAPGKERELVAAIRRSGVDTYYADSVKVRFTISRDNAKNTVSLQRNSLKPEDTAVYYCAADPYWFFPHYDSWGQGTQVTVSS	low polyreactivity
QVELVESGGGLVQPGGRLRLSCAASGRIFRYNTMGWYRQAPGKEREFVAAITQRGVNTYYADSVKGRFTISRDNAKNTVYLQRNSLKPEDTAVYYCNAKRYSYWIYRAYDYWGQGTQVTVSS	low polyreactivity
QVQLVESGGGLVQAGGSLRLSCAASGRTLSGYVMGWYRQAPGKERELDAAIDWSGGTTYYADSVKGRFTISRDTAKNTVYVQMNSLKPEDTAVYYCAAEVLSWLYWPYYYWGQGSQVTVSS	high polyreactivity
QVQLVESGGGLVQAGGSLRLSCAASGSTFINYAMGWYRQAPGKERELVATISSNGGSTYYADSVKGRFTISRDNAKNTVYLQMNRLKPEDTAVYYCAADGKQYGFYYWGQGTQVTVSS	low polyreactivity
QVQLVESGGGLVQAGGSLRLSCAASGRTFGVNMGWYRQAPGKERELVAGITSGGSTYYADSVKGRFTISRDNAKNTVYLQMNSLKPEDTAVFYCAKSYRGKWSPYYYWGQGTQVTVSS	high polyreactivity
QVQLVESGGGLVQAGGSLRLSCAASGLIFYDNMGWYIQAPGKEREMVAAISSSGGSTSYADSVKGRFTISRDNAKNTVYLQMNSLKPEDTAVYYCAADSYPAYLGFVGFDYWGQGTQVTVSS	low polyreactivity
QVQLEESGGGIVQAGGSLRLSCAASGSIIILYAMGWSRQAPGKEREFVAAITWSGGSTYYADSVKGRFTISRDNAKNTVYLQMNSLKPEDTAVYYCAARIRTVAHVDYDYWGQGTQVTVSS	high polyreactivity
QVQLVESGGGLVQAGGSLRLSCAASGRTFPKYAMGWYRQATGKERELVAAISSSGGNTYYADSVKGRFTISRDKAKTTVYLQMNSLTPEDTAVYYCAARLPRGAYYYWGQGTQLTVSS	high polyreactivity
QVQLVESGGGLVQAGGSLRLSCAASGSIFYSNVMGWYRQAPGKERELVASITNGGGTYYADSVKGRFTISRDNAKTTVYLQMNSLKPEDTAVYYCARRVYYWGQGTQVTVSS	high polyreactivity
QVQLVESGGGLVQAGGSLRLSCAASGLILQYYVMGWYRQAPGKERELVAAITRSGGGTYYADSVKGRFTISRDKAKNTVYLQMNSLIPEDTAVYYCAAQRQYGKFDYWGQGTQVTVSS	high polyreactivity
QVQLVESGGGLVQAGGSLRLSCAASGRIFTRYTMGWYRQAPGKERELVAAISSSDSSTYYADSVKGRFTISRDNAKNTVYLQMNSLKPEDTAVYYCNADRLFYEIYDYGAVRIGYDYWGQGTQVTVSS	low polyreactivity
QVQLVESGGGLVQAGGSLRLSCAASGIIFKWYGMGGYRQAPGKERELVAGITWRTGSTYYADSVKGRFTISRDNAKNTVYLQMNSLKPEDTAVYYCAARLYTYPKGKYWGQGTQVTVSS	high polyreactivity
QVQLVESGGGLVQAGGSIRLTCAASGTIFPYYAKGWYRQAPGKERELVAAISDSGDSTYYADSVKGRFTISRDNAKNTVYLQMNSLKPEDTAVYYCAADQTSSYYDPWGDYWGQGTQVTVSS	low polyreactivity
